In patent US20210186010A1, “SURFACES […] QUORUM SENSING MODULATORS” (priority 2015, published 2021):
Where “and” joins values, the source holds several entries; their conditions need not be identical. Identical values can stand only once.

Assays:
[1] = test system: Agr QS in the S. aureus reporter strain; assay: Fluorescence imaging / single-cell analysis of S. aureus reporter strain incubated with compounds in solution; assay type: cell-based, Staphylococcus aureus; conditions: 100 nM AIP-I, 3 h incubation
Description: FIG. 1 Includes FIG. 1A-FIG. 1C. FIG. 1A. illustrates the Agr QS responses of S. aureus to exogenously supplied agonists and antagonists. To follow the QS status of S. aureus cells growing on unmodified and chemically-modified surfaces, confocal microscopy and an S. aureus reporter strain that produced the fluorescent protein mKate2 in response to exogenous addition of AIP-I was used. The reporter strain was a ΔagrBDCA ΔRNAIII S. aureus mutant harboring a multicopy plasmid carrying agrCA driven by the native agrP2 promoter. […] The plasmid also harbored the Agr-activated agrP3 promoter fused to mkate2. Therefore, in response to exogenously provided AIP-I, the reporter strain fluoresced red. This QS response was repressed by the administration of TrAIP-II. A constitutively expressed sarAP1-gfpmut2 gene was introduced into the chromosome to enable normalization of QS responses^18. FIG. 1B. […]
FIG. 1B. Fluorescence images of the S. aureus reporter strain (pathways shown in panel FIG. 1A) after 3 h incubation with buffer or buffer containing 100 nM AIP-I agonist. […] Fluorescence images of the S. aureus reporter strain used in this study following 3 h incubation with TrAIP-II or with combinations of AIP-I and TrAIP-II. […]
FIG. 6. […] To identify the source of heterogeneity, the fluorescent protein distributions in individual cells was measured under different conditions. […]

[2] = test system: Agr QS in the S. aureus reporter strain; assay: Solution Assay: fluorescence reporter assay (agrP3-mkate2 normalized to sarAP1-gfpmut2), plate reader; assay type: cell-based, Staphylococcus aureus; conditions: activation of Agr QS, compound in solution; n=3 experiments
Description: Transcription from fluorescence reporter genes was measured in S. aureus strain MK242. Overnight cultures were diluted 1:200 into fresh TSB with 10 µg/ml tetracycline and 10 µg/ml erythromycin, re-grown, and 90 μl of these cultures were distributed into wells of 96 well plates (MatTek, Ashland, Mass.), followed by addition of 10 μl of AIP-I and/or TrAIP-II and/or derivatives. Subsequently, 50 μl of mineral oil was added (Sigma, St. Louis, Mo.) to prevent evaporation. Using a Synergy 2 plate reader (Biotek, Winooski, Vt.), GFPmut2 and mKate2 levels were measured at 484 nm/528 nm and 588 nm/633 nm, respectively. Measurements were conducted with 15 min intervals at 37° C. with shaking. This assay was called “Solution Assay”.
To make AIP-I amenable to surface attachment, AIP-I containing an alkyne at the N-terminus was synthesized (FIG. 7A and FIG. 8A). This compound was called “Alkyne-AIP-I” (FIG. 2A). Prior to attaching the Alkyne-AIP-I to the surface linkers, the click reaction was carried out between the Alkyne-AIP-I and a surface-free version of the PEG330-azide linker to test if the AIP-I derivatives retained their activation capability following the click reaction. […] This compound was called “PEG330-triazole-AIP-I” (FIG. 2A (iii), FIG. 7A and FIG. 8B).
It was investigated whether a QS antagonist, when immobilized on a surface, could interfere with Agr QS signal transduction. […]

[3] = biological target: AgrC-I receptor (Staphylococcus aureus (agr-I)); assay: cell-based or functional assay

With AIP-I the “mKate2 production (QS-controlled reporter)” value [1] was “mKate2 was produced only when AIP-I was supplied to the cells” and the EC50 [2] was 0.028 µM and 0.03 µM.
For AIP-I (peptide), the EC50 of Agr QS activation (agrP3-mkate2 reporter normalised to constitutive GFPmut2, solution assay, S. aureus reporter strain) [3] was 0.028 µM.
Substance Alkyne-AIP-I (peptide) has an EC50 of Agr QS activation (agrP3-mkate2 reporter normalised to constitutive GFPmut2, solution assay, S. aureus reporter strain) [3] of 0.19 µM.
Alkyne-TrAIP-II (peptide) gave an IC50 of Agr QS inhibition when AIP-I is present at 100 nM (reporter solution assay) [3] of 0.21 µM.
For PEG330-triazole-AIP-I (peptide), the EC50 of Agr QS activation (agrP3-mkate2 reporter normalised to constitutive GFPmut2, solution assay, S. aureus reporter strain) [3] was 1.1 µM.
In the case of PEG330-triazole-TrAIP-II (peptide), the IC50 of Agr QS inhibition when AIP-I is present at 100 nM (reporter solution assay) [3] is reported as 3.1 µM.
For “Surface-PEG10000-triazole-AIP-I (peptide)”, the activation of the Agr QS response at T=6 h against T=0 h (surface assay, microfluidic chambers) [3] was 25 fold, the surface coverage density above which the QS response is saturated [3] was > 16000 µm^-2 and the surface coverage density below which no QS response is elicited [3] was < 210 µm^-2.
For TrAIP-II (peptide), the IC50 of Agr QS inhibition when AIP-I is present at 100 nM (reporter solution assay) [3] was 1.5 µM and the decrease in QS inhibition when TrAIP-II is lowered from 2.5 µM to 250 nM, with 100 nM AIP-I [3] was 9 fold.
